Data from paper PMC6928932.

B1: human gastric TFF2 (endogenous) (natural protein)
chain: EKPSPCQCSRLSPHNRTNCGFPGITSDQCFDNGCCFDSSVTGVPWCFHPLPKQESDQCVMEVSDRRNCGYPGISPEECASRKCCFSNFIFEVPWCFFPKSVEDCHY
modifications: mainly N-glycosylated, to a minor extent non-glycosylated

Legend:
[1] = target: human gastric mucin MUC6 (human (endogenous in gastric corpus tissue)) (UniProt Q6W4X9); assay: far-Western, overlay or dot blot; as the overlay on fractions B12/C1, but with 30 mM EDTA and no added Ca2+
[2] = target: mucins (PAS-positive high-molecular-mass peak of human gastric extracts, containing MUC5AC and MUC6); assay: SEC + native gel or EMSA; human gastric extracts (conventional extract, extract E1) on Superdex 75 HL, 20 mM Tris-HCl pH 7.0, 30 mM NaCl; fractions analysed by 1% AgGE and Western blot; semi-quantitative TFF2 content

UniProt Q6W4X9, sequence (Q6W4X9 23-2439): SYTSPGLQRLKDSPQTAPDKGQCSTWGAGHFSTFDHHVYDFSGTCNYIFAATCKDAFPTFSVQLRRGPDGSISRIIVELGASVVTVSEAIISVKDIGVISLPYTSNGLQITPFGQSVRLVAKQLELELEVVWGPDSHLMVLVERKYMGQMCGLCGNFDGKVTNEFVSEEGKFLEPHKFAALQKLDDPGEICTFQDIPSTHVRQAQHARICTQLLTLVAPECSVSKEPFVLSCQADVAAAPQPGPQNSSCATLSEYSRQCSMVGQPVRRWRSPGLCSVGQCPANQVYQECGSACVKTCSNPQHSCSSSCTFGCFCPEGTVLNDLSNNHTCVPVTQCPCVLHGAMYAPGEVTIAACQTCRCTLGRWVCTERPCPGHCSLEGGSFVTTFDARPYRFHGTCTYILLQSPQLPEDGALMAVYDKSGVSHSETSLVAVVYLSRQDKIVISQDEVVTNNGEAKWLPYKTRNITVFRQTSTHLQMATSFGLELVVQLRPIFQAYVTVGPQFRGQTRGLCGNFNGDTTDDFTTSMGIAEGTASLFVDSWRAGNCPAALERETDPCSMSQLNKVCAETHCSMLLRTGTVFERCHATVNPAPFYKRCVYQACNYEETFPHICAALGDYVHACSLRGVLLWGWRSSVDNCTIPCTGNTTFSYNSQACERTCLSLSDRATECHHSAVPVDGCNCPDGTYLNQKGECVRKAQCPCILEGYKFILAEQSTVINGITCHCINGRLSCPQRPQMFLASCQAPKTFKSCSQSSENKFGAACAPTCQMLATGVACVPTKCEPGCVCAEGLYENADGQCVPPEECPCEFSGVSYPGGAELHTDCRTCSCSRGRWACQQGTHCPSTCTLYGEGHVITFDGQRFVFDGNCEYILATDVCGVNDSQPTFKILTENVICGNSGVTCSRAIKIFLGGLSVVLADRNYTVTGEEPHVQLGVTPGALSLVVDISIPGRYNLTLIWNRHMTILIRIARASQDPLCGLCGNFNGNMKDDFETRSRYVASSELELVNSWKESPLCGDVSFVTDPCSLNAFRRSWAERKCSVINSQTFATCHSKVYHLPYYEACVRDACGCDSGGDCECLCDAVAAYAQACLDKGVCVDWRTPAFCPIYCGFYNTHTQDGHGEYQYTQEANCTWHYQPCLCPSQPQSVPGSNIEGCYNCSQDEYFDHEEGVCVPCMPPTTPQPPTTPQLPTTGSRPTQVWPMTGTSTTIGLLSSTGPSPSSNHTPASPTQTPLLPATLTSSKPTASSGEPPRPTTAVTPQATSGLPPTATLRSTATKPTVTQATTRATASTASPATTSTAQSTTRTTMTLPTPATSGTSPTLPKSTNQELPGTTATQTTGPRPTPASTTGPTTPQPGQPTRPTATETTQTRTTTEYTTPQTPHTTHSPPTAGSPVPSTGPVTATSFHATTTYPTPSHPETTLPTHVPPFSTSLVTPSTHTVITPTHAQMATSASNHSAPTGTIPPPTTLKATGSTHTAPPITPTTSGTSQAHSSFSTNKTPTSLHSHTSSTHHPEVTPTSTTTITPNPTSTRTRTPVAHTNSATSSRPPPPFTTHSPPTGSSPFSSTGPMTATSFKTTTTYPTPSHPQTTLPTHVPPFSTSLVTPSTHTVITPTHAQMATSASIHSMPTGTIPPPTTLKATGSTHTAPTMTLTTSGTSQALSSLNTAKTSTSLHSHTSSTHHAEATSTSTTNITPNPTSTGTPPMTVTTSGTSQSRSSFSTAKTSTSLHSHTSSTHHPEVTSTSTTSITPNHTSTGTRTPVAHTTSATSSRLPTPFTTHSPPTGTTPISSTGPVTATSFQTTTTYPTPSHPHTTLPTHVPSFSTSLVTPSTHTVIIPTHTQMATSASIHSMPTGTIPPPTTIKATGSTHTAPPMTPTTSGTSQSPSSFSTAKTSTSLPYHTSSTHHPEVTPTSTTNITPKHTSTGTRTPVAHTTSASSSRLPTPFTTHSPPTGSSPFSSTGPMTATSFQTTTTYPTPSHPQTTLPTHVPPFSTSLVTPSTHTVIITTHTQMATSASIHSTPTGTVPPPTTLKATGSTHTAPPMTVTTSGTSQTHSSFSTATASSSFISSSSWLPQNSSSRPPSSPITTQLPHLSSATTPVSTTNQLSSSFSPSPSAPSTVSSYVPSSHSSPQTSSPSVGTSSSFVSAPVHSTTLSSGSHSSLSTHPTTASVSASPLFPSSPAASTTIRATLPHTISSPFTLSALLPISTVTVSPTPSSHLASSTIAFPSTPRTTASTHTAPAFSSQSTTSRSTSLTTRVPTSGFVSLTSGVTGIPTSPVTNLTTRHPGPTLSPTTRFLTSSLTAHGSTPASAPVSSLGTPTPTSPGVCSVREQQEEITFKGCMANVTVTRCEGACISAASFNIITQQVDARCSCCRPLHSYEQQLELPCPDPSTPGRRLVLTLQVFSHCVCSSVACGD

Molecule	relative amount of TFF2 bound with 30 mM EDTA [1] [%]	percent of TFF2 in the high-molecular-mass form (extract E1) [2] [%]
125I-labeled recombinant human glycosylated TFF2 (from UniProt Q03403 24-129) (natural protein)	10	
B1		86
